Publication PMC5963890
Values joined by “and” are separate entries in the source; they are usually repeats but may differ in a detail not shown here. Equal entries are not always repeated. Each block holds one substance with its values, some of them ahead of it.

Key:
[1] = target: G20c portal protein L49C/V325G/I328G conjugated with maleimide-porphyrin (bacteriophage G20c); assay: SEC
[2] = target: G20c portal protein V325G/I328G double mutant (bacteriophage G20c); assay: X-ray diffraction, self-rotation function
[3] = target: G20c portal protein V325G mutant (bacteriophage G20c); assay: crystal structure
[4] = target: G20c portal protein L49C single mutant (bacteriophage G20c); assay: negative-stain transmission electron microscopy
[5] = target: G20c portal protein L49C/V325G/I328G triple mutant (bacteriophage G20c); assay: negative-stain transmission electron microscopy
[6] = target: G20c portal protein L49C conjugated with maleimide-porphyrin (bacteriophage G20c); assay: SEC

stoichiometry N [1]: 12 and 24
Substance: G20c portal protein L49C/V325G/I328G conjugated with maleimide-porphyrin (natural protein)

stoichiometry N [2]: 12
Substance: G20c portal protein V325G/I328G double mutant (natural protein)

stoichiometry N [3]: 12
Substance: G20c portal protein V325G mutant (natural protein)

stoichiometry N [4]: 12
Substance: G20c portal protein L49C single mutant (natural protein)

stoichiometry N [5]: 12
Substance: G20c portal protein L49C/V325G/I328G triple mutant (natural protein)

stoichiometry N [6]: 12 and 24
Substance: G20c portal protein L49C conjugated with maleimide-porphyrin (natural protein)
